Columns and labels:
[1] = test system: HeLa Kyoto; assay: thermal stability score vs G1/S (z-score of summed log2 fold changes over temperatures); higher = more thermally stable than in G1/S
[2] = test system: HeLa Kyoto; assay: solubility in G1/S (NP-40 vs SDS abundance) (log2 ratio); higher = more soluble; details: cell cycle stage: G1/S
[3] = test system: HeLa Kyoto; assay: solubility change mitosis vs G1/S (difference of NP-40 vs SDS log2 ratios) (log2 ratio difference); higher = more soluble in mitosis
[4] = test system: HeLa Kyoto; assay: melting temperature (median over replicates), in situ; higher = more thermally stable
[5] = cell cycle stage: early G1 (4.5 h after nocodazole release)
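Throughout, for melting temperature (median over replicates), in situ: HeLa Kyoto cells synchronized by double thymidine or nocodazole block, proteins quantified by TMT10plex mass spectrometry, three independent biological replicates.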
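Throughout, for solubility change mitosis vs G1/S (difference of NP-40 vs SDS log2 ratios): synchronized HeLa Kyoto cells (double thymidine block for G1/S, nocodazole release for mitosis), protein amounts in NP-40 versus SDS lysates quantified by mass spectrometry, three biological replicates.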
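Throughout, for solubility in G1/S (NP-40 vs SDS abundance): HeLa Kyoto cells arrested at G1/S by double thymidine block, proteins quantified by TMT10plex mass spectrometry in mild NP-40 versus SDS extracts, three biological replicates.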
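Throughout, for thermal stability score vs G1/S (z-score of summed log2 fold changes over temperatures): synchronized HeLa Kyoto cells, proteins quantified by TMT10plex mass spectrometry, three biological replicates, mitosis taken 0.5 h after nocodazole release, G1/S directly after double thymidine block.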

Substance	thermal stability score [1, 5]	thermal stability score ([1]; cell cycle stage: mitosis)	solubility in G1/S (log2) [2]	solubility change mitosis (log2) [3]	melting temperature ([4]; cell cycle stage: G1/S) [°C]	melting temperature ([4]; cell cycle stage: mitosis) [°C]
MRGVWPPPVSALLSALGMSTYKRATLDEEDLVDSLSEGDAYPNGLQVNFHSPRSGQRCWAARTQVEKRLVVLVVLLAAGLVACLAALGIQYQTRSPSVCLSEACVSVTSSILSSMDPTVDPCHDFFSYACGGWIKANPVPDGHSRWGTFSNLWEHNQAIIKHLLENSTASVSEAERKAQVYYRACMNETRIEELRAKPLMELIERLGGWNITGPWAKDNFQDTLQVVTAHYRTSPFFSVYVSADSKNSNSNVIQVDQSGLGLPSRDYYLNKTENEKVLTGYLNYMVQLGKLLGGGDEEAIRPQMQQILDFETALANITIPQEKRRDEELIYHKVTAAELQTLAPAINWLPFLNTIFYPVEINESEPIVVYDKEYLEQISTLINTTDRCLLNNYMIWNLVRKTSSFLDQRFQDADEKFMEVMYGTKKTCLPRWKFCVSDTENNLGFALGPMFVKATFAEDSKSIATEIILEIKKAFEESLSTLKWMDEETRKSAKEKADAIYNMIGYPNFIMDPKELDKVFNDYTAVPDLYFENAMRFFNFSWRVTADQLRKAPNRDQWSMTPPMVNAYYSPTKNEIVFPAGILQAPFYTRSSPKALNFGGIGVVVGHELTHAFDDQGREYDKDGNLRPWWKNSSVEAFKRQTECMVEQYSNYSVNGEPVNGRHTLGENIADNGGLKAAYRAYQNWVKKNGAEHSLPTLGLTNNQLFFLGFAQVWCSVRTPESSHEGLITDPHSPSRFRVIGSLSNSKEFSEHFRCPPGSPMNPPHKCEVW [ECE1]	-1.05	-0.159	0.243	-0.00992	56.1	55.2
MAFANFRRILRLSTFEKRKSREYEHVRRDLDPNEVWEIVGELGDGAFGKVYKAKNKETGALAAAKVIETKSEEELEDYIVEIEILATCDHPYIVKLLGAYYHDGKLWIMIEFCPGGAVDAIMLELDRGLTEPQIQVVCRQMLEALNFLHSKRIIHRDLKAGNVLMTLEGDIRLADFGVSAKNLKTLQKRDSFIGTPYWMAPEVVMCETMKDTPYDYKADIWSLGITLIEMAQIEPPHHELNPMRVLLKIAKSDPPTLLTPSKWSVEFRDFLKIALDKNPETRPSAAQLLEHPFVSSITSNKALRELVAEAKAEVMEEIEDGRDEGEEEDAVDAASTLENHTQNSSEVSPPSLNADKPLEESPSTPLAPSQSQDSVNEPCSQPSGDRSLQTTSPPVVAPGNENGLAVPVPLRKSRPVSMDARIQVAQEKQVAEQGGDLSPAANRSQKASQSRPNSSALETLGGEKLANGSLEPPAQAAPGPSKRDSDCSSLCTSESMDYGTNLSTDLSLNKEMGSLSIKDPKLYKKTLKRTRKFVVDGVEVSITTSKIISEDEKKDEEMRFLRRQELRELRLLQKEEHRNQTQLSNKHELQLEQMHKRFEQEINAKKKFFDTELENLERQQKQQVEKMEQDHAVRRREEARRIRLEQDRDYTRFQEQLKLMKKEVKNEVEKLPRQQRKESMKQKMEEHTQKKQLLDRDFVAKQKEDLELAMKRLTTDNRREICDKERECLMKKQELLRDREAALWEMEEHQLQERHQLVKQQLKDQYFLQRHELLRKHEKEREQMQRYNQRMIEQLKVRQQQEKARLPKIQRSEGKTRMAMYKKSLHINGGGSAAEQREKIKQFSQQEEKRQKSERLQQQQKHENQMRDMLAQCESNMSELQQLQNEKCHLLVEHETQKLKALDESHNQNLKEWRDKLRPRKKALEEDLNQKKREQEMFFKLSEEAECPNPSTPSKAAKFFPYSSADAS [STK10]	1.19	2.43	0.0626	-0.0397	48.1	48.2
MAPWTLWRCCQRVVGWVPVLFITFVVVWSYYAYVVELCVFTIFGNEENGKTVVYLVAFHLFFVMFVWSYWMTIFTSPASPSKEFYLSNSEKERYEKEFSQERQQEILRRAARALPIYTTSASKTIRYCEKCQLIKPDRAHHCSACDSCILKMDHHCPWVNNCVGFSNYKFFLLFLLYSLLYCLFVAATVLEYFIKFWTNELTDTRAKFHVLFLFFVSAMFFISVLSLFSYHCWLVGKNRTTIESFRAPTFSYGPDGNGFSLGCSKNWRQVFGDEKKYWLLPIFSSLGDGCSFPTRLVGMDPEQASVTNQNEYARSSGSNQPFPIKPLSESKNRLLDSESQWLENGAEEGIVKSGTNNHVTVAIEN [ZDHHC20]	-0.885	-1.86	-0.00639	-0.0867	55.1	58.2
MAEGNTLISVDYEIFGKVQGVFFRKHTQAEGKKLGLVGWVQNTDRGTVQGQLQGPISKVRHMQEWLETRGSPKSHIDKANFNNEKVILKLDYSDFQIVK [ACYP1]	0.389	-1.31	0.223	-0.0383	52.3	52.7
MAGDSEQTLQNHQQPNGGEPFLIGVSGGTASGKSSVCAKIVQLLGQNEVDYRQKQVVILSQDSFYRVLTSEQKAKALKGQFNFDHPDAFDNELILKTLKEITEGKTVQIPVYDFVSHSRKEETVTVYPADVVLFEGILAFYSQEVRDLFQMKLFVDTDADTRLSRRVLRDISERGRDLEQILSQYITFVKPAFEEFCLPTKKYADVIIPRGADNLVAINLIVQHIQDILNGGPSKRQTNGCLNGYTPSRKRQASESSSRPH [UCK2]	0.367	-1.36	0.28	0.265	52.2	52.9
MDEQAGPGVFFSNNHPGAGGAKGLGPLAEAAAAGDGAAAAGAARAQYSLPGILHFLQHEWARFEVERAQWEVERAELQAQIAFLQGERKGQENLKKDLVRRIKMLEYALKQERAKYHKLKYGTELNQGDMKPPSYDSDEGNETEVQPQQNSQLMWKQGRQLLRQYLQEVGYTDTILDVKSKRVRALLGFSSDVTDREDDKNQDSVVNGTEAEVKETAMIAKSELTDSASVLDNFKFLESAAADFSDEDEDDDVDGREKSVIDTSTIVRKKALPDSGEDRDTKEALKEFDFLVTSEEGDNESRSAGDGTDWEKEDQCLMPEAWNVDQGVITKLKEQYKKERKGKKGVKRPNRSKLQDMLANLRDVDELPSLQPSVGSPSRPSSSRLPEHEINRADEVEALTFPPSSGKSFIMGADEALESELGLGELAGLTVANEADSLTYDIANNKDALRKTWNPKFTLRSHFDGIRALAFHPIEPVLITASEDHTLKMWNLQKTAPAKKSTSLDVEPIYTFRAHKGPVLCVVMSSNGEQCYSGGTDGLIQGWNTTNPNIDPYDSYDPSVLRGPLLGHTDAVWGLAYSAAHQRLLSCSADGTLRLWNTTEVAPALSVFNDTKELGIPASVDLVSSDPSHMVASFSKGYTSIFNMETQQRILTLESNVDTTANSSCQINRVISHPTLPISITAHEDRHIKFYDNNTGKLIHSMVAHLEAVTSLAVDPNGLYLMSGSHDCSIRLWNLESKTCIQEFTAHRKKFEESIHDVAFHPSKCYIASAGADALAKVFV [STRN]	0.0936	-0.463	0.0488	-0.134	52.4	52.3
MRRFLLLYATQQGQAKAIAEEICEQAVVHGFSADLHCISESDKYDLKTETAPLVVVVSTTGTGDPPDTARKFVKEIQNQTLPVDFFAHLRYGLLGLGDSEYTYFCNGGKIIDKRLQELGARHFYDTGHADDCVGLELVVEPWIAGLWPALRKHFRSSRGQEEISGALPVASPASSRTDLVKSELLHIESQVELLRFDDSGRKDSEVLKQNAVNSNQSNVVIEDFESSLTRSVPPLSQASLNIPGLPPEYLQVHLQESLGQEESQVSVTSADPVFQVPISKAVQLTTNDAIKTTLLVELDISNTDFSYQPGDAFSVICPNSDSEVQSLLQRLQLEDKREHCVLLKIKADTKKKGATLPQHIPAGCSLQFIFTWCLEIRAIPKKAFLRALVDYTSDSAEKRRLQELCSKQGAADYSRFVRDACACLLDLLLAFPSCQPPLSLLLEHLPKLQPRPYSCASSSLFHPGKLHFVFNIVEFLSTATTEVLRKGVCTGWLALLVASVLQPNIHASHEDSGKALAPKISISPRTTNSFHLPDDPSIPIIMVGPGTGIAPFIGFLQHREKLQEQHPDGNFGAMWLFFGCRHKDRDYLFRKELRHFLKHGILTHLKVSFSRDAPVGEEEAPAKYVQDNIQLHGQQVARILLQENGHIYVCGDAKNMAKDVHDALVQIISKEVGVEKLEAMKTLATLKEEKRYLQDIWS [MTRR]	0.212	0.326	0.0379	-0.105	50.1	50.2
GTF3C1	1.22	3.47	-0.378	-0.00776	47.5	49.4
MDIRPNHTIYINNMNDKIKKEELKRSLYALFSQFGHVVDIVALKTMKMRGQAFVIFKELGSSTNALRQLQGFPFYGKPMRIQYAKTDSDIISKMRGTFADKEKKKEKKKAKTVEQTATTTNKKPGQGTPNSANTQGNSTPNPQVPDYPPNYILFLNNLPEETNEMMLSMLFNQFPGFKEVRLVPGRHDIAFVEFENDGQAGAARDALQGFKITPSHAMKITYAKK [SNRPB2]	-2.85	-4.3	0.221	0.472	54.2	53.2
MASNDYTQQATQSYGAYPTQPGQGYSQQSSQPYGQQSYSGYSQSTDTSGYGQSSYSSYGQSQNTGYGTQSTPQGYGSTGGYGSSQSSQSSYGQQSSYPGYGQQPAPSSTSGSYGSSSQSSSYGQPQSGSYSQQPSYGGQQQSYGQQQSYNPPQGYGQQNQYNSSSGGGGGGGGGGNYGQDQSSMSSGGGSGGGYGNQDQSGGGGSGGYGQQDRGGRGRGGSGGGGGGGGGGYNRSSGGYEPRGRGGGRGGRGGMGGSDRGGFNKFGGPRDQGSRHDSEQDNSDNNTIFVQGLGENVTIESVADYFKQIGIIKTNKKTGQPMINLYTDRETGKLKGEATVSFDDPPSAKAAIDWFDGKEFSGNPIKVSFATRRADFNRGGGNGRGGRGRGGPMGRGGYGGGGSGGGGRGGFPSGGGGGGGQQRAGDWKCPNPTCENMNFSWRNECNQCKAPKPDGPGGGPGGSHMGGNYGDDRRGGRGGYDRGGYRGRGGDRGGFRGGRGGGDRGGFGPGKMDSRGEHRQDRRERPY [FUS]	0.878	-3.18	-0.295	0.333	56.1	54.8
MQRASRLKRELHMLATEPPPGITCWQDKDQMDDLRAQILGGANTPYEKGVFKLEVIIPERYPFEPPQIRFLTPIYHPNIDSAGRICLDVLKLPPKGAWRPSLNIATVLTSIQLLMSEPNPDDPLMADISSEFKYNKPAFLKNARQWTEKHARQKQKADEEEMLDNLPEAGDSRVHNSTQKRKASQLVGIEKKFHPDV [UBE2T]	-0.273	-0.0505	0.66	0.118	49.2	49.9
MTVSGPGTPEPRPATPGASSVEQLRKEGNELFKCGDYGGALAAYTQALGLDATPQDQAVLHRNRAACHLKLEDYDKAETEASKAIEKDGGDVKALYRRSQALEKLGRLDQAVLDLQRCVSLEPKNKVFQEALRNIGGQIQEKVRYMSSTDAKVEQMFQILLDPEEKGTEKKQKASQNLVVLAREDAGAEKIFRSNGVQLLQRLLDMGETDLMLAALRTLVGICSEHQSRTVATLSILGTRRVVSILGVESQAVSLAACHLLQVMFDALKEGVKKGFRGKEGAIIVDPARELKVLISNLLDLLTEVGVSGQGRDNALTLLIKAVPRKSLKDPNNSLTLWVIDQGLKKILEVGGSLQDPPGELAVTANSRMSASILLSKLFDDLKCDAERENFHRLCENYIKSWFEGQGLAGKLRAIQTVSCLLQGPCDAGNRALELSGVMESVIALCASEQEEEQLVAVEALIHAAGKAKRASFITANGVSLLKDLYKCSEKDSIRIRALVGLCKLGSAGGTDFSMKQFAEGSTLKLAKQCRKWLCNDQIDAGTRRWAVEGLAYLTFDADVKEEFVEDAAALKALFQLSRLEERSVLFAVASALVNCTNSYDYEEPDPKMVELAKYAKQHVPEQHPKDKPSFVRARVKKLLAAGVVSAMVCMVKTESPVLTSSCRELLSRVFLALVEEVEDRGTVVAQGGGRALIPLALEGTDVGQTKAAQALAKLTITSNPEMTFPGERIYEVVRPLVSLLHLNCSGLQNFEALMALTNLAGISERLRQKILKEKAVPMIEGYMFEEHEMIRRAATECMCNLAMSKEVQDLFEAQGNDRLKLLVLYSGEDDELLQRAAAGGLAMLTSMRPTLCSRIPQVTTHWLEILQALLLSSNQELQHRGAVVVLNMVEASREIASTLMESEMMEILSVLAKGDHSPVTRAAAACLDKAVEYGLIQPNQDGE [UNC45A]	0.271	1.37	0.2	-0.111	48.6	48.8

— the supplement of paper PMC5998384
